Laboratory results as given in US20240376170A1 (BRIGHT PEAK THERAPEUTICS, published 2024).
Bridges are numbered along the chain shown (N, C = ends). Primed or numbered codes have the meaning given here. [ ]: non-standard residue; d: D form. Ygp(4) = Tyr with amino-capped PEG8 (O-(8x polyethylene glycol-amino)-tyrosine); Yn3(4) = Tyr with azide-capped PEG9 (O-(9x polyethylene glycol-azido)-tyrosine); Ygp = O-(8x polyethylene glycol-amino)-tyrosine (Tyr, amino-capped PEG8); Yn3 = O-(9x polyethylene glycol-azido)-tyrosine (Tyr, azide-capped PEG9); cleavable peptide‑PEG9‑glutaryl = not defined here; Ygp″ = O-(8x polyethylene glycol-amino)-tyrosine; Yn3″ = O-(9x polyethylene glycol-azido)-tyrosine; PEG4′ = 4x polyethylene glycol; PEG9′ = 9x polyethylene glycol; hSer = N[C@@H](CCO)C(=O)O; Nle = CCCC[C@H](N)C(=O)O

T1: IL-2 receptor βγ complex (human, UniProt P14784 27-551; P31785 23-369)
T1 sequence (looked up) 1: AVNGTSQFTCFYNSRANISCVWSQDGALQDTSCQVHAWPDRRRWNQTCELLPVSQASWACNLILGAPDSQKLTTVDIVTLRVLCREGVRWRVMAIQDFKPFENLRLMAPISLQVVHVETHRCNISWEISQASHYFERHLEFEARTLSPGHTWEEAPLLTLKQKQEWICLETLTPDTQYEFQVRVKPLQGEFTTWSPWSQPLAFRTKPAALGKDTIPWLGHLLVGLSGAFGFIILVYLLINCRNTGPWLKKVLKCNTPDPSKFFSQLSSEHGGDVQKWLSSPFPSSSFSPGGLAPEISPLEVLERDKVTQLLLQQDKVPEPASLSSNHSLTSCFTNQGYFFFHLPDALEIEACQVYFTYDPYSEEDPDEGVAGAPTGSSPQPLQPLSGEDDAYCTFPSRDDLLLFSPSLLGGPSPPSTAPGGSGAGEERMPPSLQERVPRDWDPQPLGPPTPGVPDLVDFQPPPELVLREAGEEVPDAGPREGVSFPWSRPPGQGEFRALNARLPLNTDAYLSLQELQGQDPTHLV
T1 sequence (looked up) 2: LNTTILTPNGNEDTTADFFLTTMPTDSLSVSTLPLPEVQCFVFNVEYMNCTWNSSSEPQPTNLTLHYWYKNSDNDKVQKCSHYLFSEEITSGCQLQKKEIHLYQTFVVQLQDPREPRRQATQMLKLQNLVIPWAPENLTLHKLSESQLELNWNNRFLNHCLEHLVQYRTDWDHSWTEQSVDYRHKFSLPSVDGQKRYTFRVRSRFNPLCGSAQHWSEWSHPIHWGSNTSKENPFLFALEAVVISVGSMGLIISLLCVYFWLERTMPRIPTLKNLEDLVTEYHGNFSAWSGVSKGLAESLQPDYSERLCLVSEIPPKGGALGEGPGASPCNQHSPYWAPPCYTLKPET

B1: CMP-136 (ligand)
chain: [PEG9′]PLGLAG[PEG9′]APTSSSTKKTQLQLEHLLLDLQ[Nle]ILNGIENYKNPKLTR[Nle]L[hSer][Yn3]KF[Ygp][Nle]PKKATELKHLQCLEEELKPLEEVL[hSer]LAQSKNFHLRPRDLISNINVIVLELKGSETTF[hSer]CEYADETATIVEFLNRWITFSQSIISTLT
modifications: bridge N-37; not fully specified (bridges); ends not checked
B2: CMP-138 (ligand)
chain: [PEG4′]SGGPGPAGMKGLPGS[PEG4′]APTSSSTKKTQLQLEHLLLDLQ[Nle]ILNGIENYKNPKLTR[Nle]L[hSer][Yn3]KF[Ygp][Nle]PKKATELKHLQCLEEELKPLEEVL[hSer]LAQSKNFHLRPRDLISNINVIVLELKGSETTF[hSer]CEYADETATIVEFLNRWITFSQSIISTLT
modifications: bridge (positions not given here); not fully specified (bridges); ends not checked
B3: CMP-151 (ligand)
chain: APTSSSTKKTQLQLEHLLLDLQKILNGINNYKNPKLTR[Nle]L[hSer][Yn3″]KF[Ygp″][Nle]PKKATELKHLQCLEEELKPLEEVL[hSer]LAQSKNFHLRPRDLISNINVIVLELKGSETTF[hSer]CEYADETATIVEFLNRWITFSQSIISTLT
modifications: linker N-23 via cleavable peptide‑PEG9‑glutaryl; reading uncertain
B4: CMP-156, MMP2 cleaved molecule (ligand)
chain: APTSSSTKKTQLQLEHLLEDLQ[Nle]ILNGINNYKNPKLTR[Nle]L[hSer][Yn3″]KF[Ygp″][Nle]PKKATELKHLQCLEEELKPLEEVL[hSer]LAQSKNFHLRPRDLISNINVIVLELKGSETTF[hSer]CEYADETATIVEFLNRWITFSQSIISTLT
modifications: not fully specified; also: MMP2 cleaved, cleavage site and linker fragments on N-terminus and Glu19 side chain not given here
B5: CMP-157 (ligand)
chain: PLGLAGAPTSSSTKKTQLQLEHLLEDLQ[Nle]ILNGINNYKNPKLTR[Nle]L[hSer][Yn3″]KF[Ygp″][Nle]PKKATELKHLQCLEEELKPLEEVL[hSer]LAQSKNFHLRPRDLISNINVIVLELKGSETTF[hSer]CEYADETATIVEFLNRWITFSQSIISTLT
modifications: linker N-25 via PEG4′
B6: CMP-157, MMP2 cleaved molecule (ligand)
chain: PLGLAGAPTSSSTKKTQLQLEHLLEDLQ[Nle]ILNGINNYKNPKLTR[Nle]L[hSer][Yn3″]KF[Ygp″][Nle]PKKATELKHLQCLEEELKPLEEVL[hSer]LAQSKNFHLRPRDLISNINVIVLELKGSETTF[hSer]CEYADETATIVEFLNRWITFSQSIISTLT
modifications: not fully specified (bridges); also: MMP2 cleaved, site not given here
B7: CMP-158 (ligand)
chain: GPLGLAG[PEG4′]APTSSSTKKTQLQLEHLLLDLE[Nle]ILNGINNYKNPKLTR[Nle]L[hSer][Yn3(4)]KF[Ygp(4)][Nle]PKKATELKHLQCLEEELKPLEEVL[hSer]LAQSKNFHLRPRDLISNINVIVLELKGSETTF[hSer]CEYADETATIVEFLNRWITFSQSIISTLT
modifications: bridge N-30; not fully specified (bridges); ends not checked
B8: CMP-158, MMP2 cleaved molecule (ligand)
chain: APTSSSTKKTQLQLEHLLLDLE[Nle]ILNGINNYKNPKLTR[Nle]L[hSer][Yn3(4)]KF[Ygp(4)][Nle]PKKATELKHLQCLEEELKPLEEVL[hSer]LAQSKNFHLRPRDLISNINVIVLELKGSETTF[hSer]CEYADETATIVEFLNRWITFSQSIISTLT
modifications: not fully specified; ends and bridges not checked; also: MMP2 cleaved, cleavage site and linker fragments on N-terminus and Glu22 side chain not given here
B9: CMP-159 (ligand)
chain: PLGLAGAPTSSSTKKTQLQLEHLLLDLE[Nle]ILNGINNYKNPKLTR[Nle]L[hSer][Yn3(4)]KF[Ygp(4)][Nle]PKKATELKHLQCLEEELKPLEEVL[hSer]LAQSKNFHLRPRDLISNINVIVLELKGSETTF[hSer]CEYADETATIVEFLNRWITFSQSIISTLT
modifications: bridge N-28; not fully specified (N-terminus, bridges); ends not checked
B10: CMP-159, MMP2 cleaved molecule (ligand)
chain: PLGLAGAPTSSSTKKTQLQLEHLLLDLE[Nle]ILNGINNYKNPKLTR[Nle]L[hSer][Yn3(4)]KF[Ygp(4)][Nle]PKKATELKHLQCLEEELKPLEEVL[hSer]LAQSKNFHLRPRDLISNINVIVLELKGSETTF[hSer]CEYADETATIVEFLNRWITFSQSIISTLT
modifications: not fully specified (bridges); ends and bridges not checked; also: MMP2 cleaved, site not given here
B11: CMP-160 (ligand)
chain: GPLGLAG[PEG9′]APTSSSTKKTQLQLEHLLLDLQ[Nle]ILEGINNYKNPKLTR[Nle]L[hSer][Yn3(4)]KF[Ygp(4)][Nle]PKKATELKHLQCLEEELKPLEEVL[hSer]LAQSKNFHLRPRDLISNINVIVLELKGSETTF[hSer]CEYADETATIVEFLNRWITFSQSIISTLT
modifications: bridge N-34; not fully specified (bridges); ends not checked
B12: CMP-160, MMP2 cleaved molecule (ligand)
chain: APTSSSTKKTQLQLEHLLLDLQ[Nle]ILEGINNYKNPKLTR[Nle]L[hSer][Yn3(4)]KF[Ygp(4)][Nle]PKKATELKHLQCLEEELKPLEEVL[hSer]LAQSKNFHLRPRDLISNINVIVLELKGSETTF[hSer]CEYADETATIVEFLNRWITFSQSIISTLT
modifications: not fully specified; ends and bridges not checked; also: MMP2 cleaved, cleavage site and linker fragments on N-terminus and Glu26 side chain not given here
B13: CMP-161 (ligand)
chain: PLGLAGAPTSSSTKKTQLQLEHLLLDLQ[Nle]ILEGINNYKNPKLTR[Nle]L[hSer][Yn3(4)]KF[Ygp(4)][Nle]PKKATELKHLQCLEEELKPLEEVL[hSer]LAQSKNFHLRPRDLISNINVIVLELKGSETTF[hSer]CEYADETATIVEFLNRWITFSQSIISTLT
modifications: bridge N-32; not fully specified (N-terminus, bridges); ends not checked
B14: CMP-161, MMP2 cleaved molecule (ligand)
chain: PLGLAGAPTSSSTKKTQLQLEHLLLDLQ[Nle]ILEGINNYKNPKLTR[Nle]L[hSer][Yn3(4)]KF[Ygp(4)][Nle]PKKATELKHLQCLEEELKPLEEVL[hSer]LAQSKNFHLRPRDLISNINVIVLELKGSETTF[hSer]CEYADETATIVEFLNRWITFSQSIISTLT
modifications: not fully specified (bridges); ends and bridges not checked; also: MMP2 cleaved, site not given here
B15: CMP-162 (ligand)
chain: APTSSSTKKTQLQLEHLLLDLQKILNGINNYKNPKLTR[Nle]L[hSer][Yn3(4)]KF[Ygp(4)][Nle]PKKATELKHLQCLEEELKPLEEVL[hSer]LAQSKNFHLRPRDLISNINVIVLELKGSETTF[hSer]CEYADETATIVEFLNRWITFSQSIISTLT
modifications: ends and bridges not checked; also: further groups not given here
B16: CMP-162, MMP2 cleaved molecule (ligand)
chain: APTSSSTKKTQLQLEHLLLDLQKILNGINNYKNPKLTR[Nle]L[hSer][Yn3(4)]KF[Ygp(4)][Nle]PKKATELKHLQCLEEELKPLEEVL[hSer]LAQSKNFHLRPRDLISNINVIVLELKGSETTF[hSer]CEYADETATIVEFLNRWITFSQSIISTLT
modifications: not fully specified; ends and bridges not checked; also: MMP2 cleaved, cleavage site and linker fragment on Lys23 side chain not given here

Each binder was assayed against T1, IL-2 receptor βγ complex (assay: cell-based or functional assay).

Average EC50, pSTAT5 Assay (T cells) [nM] | Binder
40.5 | B1
20.1 | B2
28.2 | B3
21.3 | B4
54.5 | B5
10 | B6
36.6 | B7
1.95 | B8
35.5 | B9
2.27 | B10
27.8 | B11
2.21 | B12
29.4 | B13
3.59 | B14
2.79 | B15
0.758 | B16

Biological target: T1, IL-2 receptor βγ complex
Assay: cell-based or functional assay
Remark: another data set of the same source

Average EC50, pSTAT5 Assay in NK cells [nM] | Binder
2.17 | B1
1.88 | B2
2.51 | B3
